Assay results published in patent US20140072580, “NOVEL TARGETS FOR TREATMENT OF HYPERCHOLESTEROLEMIA” (THE REGENTS OF THE UNIVERSITY OF CALIFORNIA, published 2014).

Experiments:
[1] = biological target: T1, LXR/RXR heterodimer (LXRalpha (NR1H3)/RXR; isoforms in EMSA not stated) (UniProt Q9Z0Y9;P28700 Q9Z0Y9:1-445,P28700:1-467); assay: EMSA; binding competed by excess unlabeled Mylip LXRE; protein source not stated; conditions: label: radiolabeled
T1 sequence 1: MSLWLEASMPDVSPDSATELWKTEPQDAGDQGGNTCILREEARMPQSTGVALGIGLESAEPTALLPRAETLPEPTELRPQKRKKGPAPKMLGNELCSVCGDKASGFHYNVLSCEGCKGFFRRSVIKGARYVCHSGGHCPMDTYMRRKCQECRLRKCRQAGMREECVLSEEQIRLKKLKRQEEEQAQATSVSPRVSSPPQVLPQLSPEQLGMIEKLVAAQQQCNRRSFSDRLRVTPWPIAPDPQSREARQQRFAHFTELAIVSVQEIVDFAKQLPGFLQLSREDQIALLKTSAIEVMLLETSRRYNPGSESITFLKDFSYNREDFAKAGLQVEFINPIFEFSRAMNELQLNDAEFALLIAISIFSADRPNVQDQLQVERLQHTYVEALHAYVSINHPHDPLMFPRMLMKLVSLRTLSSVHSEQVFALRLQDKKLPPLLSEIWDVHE
T1 sequence 2: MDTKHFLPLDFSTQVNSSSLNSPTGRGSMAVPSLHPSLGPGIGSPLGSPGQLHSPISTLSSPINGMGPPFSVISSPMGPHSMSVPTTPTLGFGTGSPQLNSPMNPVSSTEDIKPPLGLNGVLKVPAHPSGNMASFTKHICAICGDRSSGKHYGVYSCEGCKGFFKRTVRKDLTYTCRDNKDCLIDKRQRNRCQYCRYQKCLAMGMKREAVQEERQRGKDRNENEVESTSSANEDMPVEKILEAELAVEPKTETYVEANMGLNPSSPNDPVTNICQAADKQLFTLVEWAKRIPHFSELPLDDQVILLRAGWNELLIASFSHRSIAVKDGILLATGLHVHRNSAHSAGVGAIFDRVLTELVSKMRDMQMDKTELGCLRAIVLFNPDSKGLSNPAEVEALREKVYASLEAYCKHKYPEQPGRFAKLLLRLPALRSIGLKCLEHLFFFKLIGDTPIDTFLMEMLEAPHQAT
Procedure: (§1) It also could not be secondary to induction of SREBP-1c, because oxysterols that block SREBP processing still induced Mylip expression (FIG. 6B). LXRs activate target genes by binding to consensus elements (LXREs) in their promoters. We identified an LXRE approximately 2.5 kb upstream of the mouse Mylip translation start site (FIG. 6C) and generated a reporter construct encompassing this region.
(§2) A 10 Kb promotor region upstream of the mMylip transcription initiation site was analyzed for the presence of LXR binding elements. A consensus DR4 site was identified 2454 upstream of the transcription initiation site. Olignoucleotides encompassing this element were designed, annealed and tested for binding to LXR/RXR heterodimers in a standard EMSA assay. A 2.5 kB promotor fragment upstream of the transcription initiation site containing the identified LXRE was amplified by PCR from BAC clone RP23-17N24 using mMylip-prom-FWD […] (SEQ ID NO:20) or mMylip-prom-ΔFWD […] (SEQ ID NO:21) with the common antisense primer mMylip-prom-REV […] (SEQ ID NO:22). Amplified fragments were cloned as SacI/XhoI fragments into pGL3 basic (Promega). Promotor analysis was done as previously described (Joseph et al. (2002) J Biol Chem 277: 11019).

[2] = biological target: T1, LXR/RXR heterodimer (LXRalpha …); assay: EMSA; no binding to mutant LXRE; conditions: label: radiolabeled
Procedure: as §1, §2

B1: Mylip WT DR4 LXRE (dsDNA)
DNA 1: TCCCTACTTAACCTACAATGACCTCAAGTTTC
DNA 2: GAAACTTGAGGTCATTGTAGGTTAAGTAGGGA
B1: binds [1].

B2: Mylip MUT DR4 LXRE (dsDNA)
DNA 1: TCCCTACTTATTCTACAATGTTCTCAAGTTTC
DNA 2: GAAACTTGAGAACATTGTAGAATAAGTAGGGA
B2: no binding [2].
